Source: PMC6802118, “Isolation of Artemisia capillaris membrane-bound di-prenyltransferase for phenylpropanoids and redesign of artepillin C in yeast” (Communications Biology, 2019)

What was measured:
[1] = substrate: CC(C)=CCOP(=O)(O)OP(=O)(O)O; experiment: HPLC assay of artepillin C formation; non-linear least-squares fit; type: biochemical, Artemisia capillaris; conditions: N. benthamiana microsomes, 0.5 mM drupanin, 10 mM MgCl2, 30 °C, 20 min, 12.5-200 µM DMAPP, mean ± SE
[2] = substrate: CC(C)=CCc1cc(/C=C/C(=O)O)ccc1O; experiment: as above; type: biochemical, Artemisia capillaris; conditions: N. benthamiana microsomes, 0.5 mM DMAPP, 10 mM MgCl2, 30 °C, 20 min, 15.6-250 µM drupanin, mean ± SE

B1: AcPT1 (Artemisia capillaris) (protein)
chain: ISKVENNVSAQFQRRGYKNHFGQSLHEPLSLQKMDEEKFKLNAASTNNPQFDATHDLVKPTESVISFLEVLFRFIRPYAAVGTVLCIASMSLLTVEKLSDFSPLFFMKVLQALVGAMFMQMWVCGINQICDIELDKINKPSLPLASGELSMTTAITVSALSAIMSFSIGWIASPALFWGFVGWFVVGTAYSANLPWLRWKRFPLTSAFYMLCSRALVVPIGYYLHMQKSIHGGSALLSRPILFAVGMLSAFCISTIFFKDIPDIEGDRMHGIKSLAITLGEKRTFWMCIWILEIAYVAAAFFGATSPITWSKYITVISHLAMALALWTRAKSTDVKNKDAVQSMYYFLWQLFFAEYGLIALVR
notes: full CDS, 401 aa incl. predicted 38-aa plastid transit peptide; untagged (pGWB502, 35S promoter); transient expression in Nicotiana benthamiana leaves; microsomes
Work on B1 yielded a Km [1] of 130 ± 20 µM and a Km [2] of 50 ± 5 µM.
